# Measurements: the RNAGym collection of RNA variant scans (doi:10.1073/pnas.2313332121)
# Variants at the floor of the assay were thinned out.
# B1: TPR 5TU (parent)
# chain: GGAUCUUCUCGAUCUAACAAAAAAGACAAAUCUGCCACAAAGCUUGAGAGCAUCUUCGGAUGCAGAGGCGGCAGCCUUCGGUGGCGCGAUAGCGCCAACGUUCUCAACUAUGACACGCAAAACGCGUGCUCCGUUGAAUGGAGUUUAUCAUG
# Variants of: B1
# Experiment: polymerase ribozyme fitness, log enrichment relative to wild type (log ratio); higher = more active; in vitro selection for triplet polymerase activity
# Summary of the method: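 Each subunit of a heterodimeric triplet polymerase ribozyme was represented by a PCR-built, transcribed mutant library that underwent triplicate single-round in vitro selection with frozen incubation at −7 °C. Extended constructs were recovered by gel excision, streptavidin-bead capture and RT-PCR, and Illumina sequencing of input and output libraries kept genotypes with ≥10 input reads and ≥1 read per output. Fitness is the logarithm of genotype enrichment relative to wild-type enrichment, from inverse-variance-weighted replicate averages, with a logarithm base of 2.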
row,Variant,polymerase ribozyme fitness (log ratio)
1,GGAUCUUCUCGGUCUAACAAAAAAGACAAAUCUGCCACAAAGCUUGAGAGCAUUUUCGGAUGCAGAGGCGGCAGCCUUCGGUGGCUCGAUAGCGCCAACGUUCUUAACUAUGACACGCAAAACGCGUGCUCCGUUGAAUGGAAUUUAUCAUG,-2.5
2,GGAUCUUCUCGGUCUAACAAAAAAGAUAAAUCUGCCACAAAGCUUUAGAGCAUCUUAGGAUGCAGAGGCGGCAGCCUUCGGUGGGGCGAUAGCGCCAACGUUCUCAACUAUGACACGCAAACCGCGUGCUCCGUUGAAUGGAGUUUAUCAUG,-3.63
3,GGAUCUUCUCGGUCUAACAAAAAAGACAAAUCUGCCACAAAGCUUGAGAGCAUAUUCGGAUGCAGAGGCGGCAGCCUUCGGUGGCGCGAUAGCGCCAAUGUUCUCAACUAUGACACGCAAAACGCGUGCUCCGUUGAAUGGAGUUUAUCAUG,-1.32
4,GGAUCUUCUCGGUCUAACAAAAAAGACAAAUCUGCCACAAAGCUUGAGAGCAUCUUCGGAUGCAGAGGCGGCAGCCUUCGGUGGCGCGAUUGCGCCAACGUUCUGUACUAUGACACGCAAAACGCGUGCUCCGUUGAAUGGAGUUUAUCAUG,-4.11
5,GGAUCUUCUCGGUCUAACAAAAAAGACAAAUCUGCCACAAAGCUUGAGAGCAUCUUCGGAUGCAGAGGCGGCAGCCUUCGGUGGCGAGAUAGCGCCAACGUUCUCAACUAUGACACGCAAAACGCGUGCUCCGUUGAAUGGAGUUUAUCAUG,≤ -4.2
6,GGAUCUUCUCGGUCUAACAAAAAAGACAAAUCUGCCACAAAGCUUGAGAGCAUCUUCGGAUGCAGAGGAGGCAGCCUUCGGUGGCGCGAUAGCGCUAACGUUCUCAACUAUGACACGCAACACGCGGGCUCCGUUGAAUGGAGUUUUUCAUG,-4.02
7,GGAUCUUCUCGGUCUAACAAAAAAGAAAAAGCUGGCACAAAGCUUGAGAGCAUCUUCGGAUGCAGAGGCGGCAGCCUUCGGUGGAGCGAUAGCGCCCAGGUUCUCAACUAUGACACGCAAAACGCGUGCUCCGUUGAAUGGAGUUUAUAAUG,≤ -4.2
8,GGAUCUUCUCGGUCUAACAAAAAAGACAAAUCUGCCACAAAGCUUGAGAGCAUCUUCGGAUGCAGAGGCGGCAGCCUUCGGUGGUGCGAUAGCGCCAACGUUCUCAACUAUGACACGCAAAACGCGUGAUCCGUUGAAUGGAGUUUAUCACG,≤ -4.2
9,GGAUCUUCUCGGUCUAACAAAAAAGACAGAUCUGCCACAAAGCUUGAGAGCAUCAUCGGAUGCAGAGGCGGCAGCCUUCGGUGGUGCGAUAGCGCUAACGUUCUUAACUAUGACACGCAAAACGCGUGCUCCGUUGAAUGGAGUUUAUCAUG,≤ -4.2
10,GGAUCUUCUCGGUCUAACAAAAAAGACAAAUCUGCCACAAAGCUUGAGAGCAUCUUCGGAUGCAGAGGCGGUAGCCUUCGGUGGCGCUAUAGCGCCAACGUUCUCAACUAUGACACGCAUAACGCGUGCUCCGUUGAAUGUAGUUUAUCAUG,≤ -4.2
11,GGAUCUUCUCGGUCUAACAACAGAGACAAAUCUGCCACAAAGCUUGAGAGCAUCUUCGGAUGCAGAGGCGGCAGCGUUCGGUGGCGCGAUAGCGCCAACGUUCUCAACUAUGACAGGCAAAACGCGUGCUCCAUUGAAUGGAGUUUAUCAUG,≤ -4.2
12,GGAUCUUCUCGGUCUAACAAGAAAGACAAAUCUGCCACAAAGUUUGAGAGCAUCAUCGGAUGCAGAGGCGGCAGCCUUCGGUUGCGCGAUAGCGCCAACGUUCUCAACUAUGACACGCAAAACGCGUGCUCCGUUGAAUGGAGGUUAUCAUG,≤ -4.2
13,GGAUCUUCUCGGUCUAACAAAAAAGACAAAUCUGUCACAAAGCUUGAGAGCAUCGUCGGAUGCAGAGGCGGCAGCCUUCGGUGGCGGGAUAGCGCCAACGUUCUCAACUAUGACUCGCAAAACGCGUGCUCCGUUGAAUGGAGUUUAUCAUG,-4.17
14,GGAUCUUCUCGGUCUAACAAAAAAGACAAAUCUGCCACAAAGCUUGAGAGCAUCUUCGGAUGUAGAGGCGGCAGCCUUCGGUCGCGCGAUAGCGUCAACGUUCUCAACAAUGACACGCAAAACGCGUGCUCCGUUGAAUGGAGUUUAUCAUG,-2.16
15,GGAUCUUCUCGGUCUAACAAAAAAGACAAAUUUGCCACAAAGCUUGAGAGCAUCUUCGGAUGCAGAGGCGGCAGCCUUCGGUGGAGCGAUAGCGCCAACGUUCUCAACUAUGACACGCAAAACGCGUGCUCCGUUGCAUGGAGUUUAUCAUG,≤ -4.2
16,GGAUCUUCUCGGUCUAACAAAAAAGACAAAUCUGCCACAAAGCUUGAGAGCAUCUUCGGAUGUAGAGGCGGCAGCCUUCGGUGGCGCGAUAGCGCCAACGUUCUCAACUAUGACACGCAAAACGCGUGCUCCGAUGAAUGGAGUUUAUCAUG,-2.26
17,GGAUCUUCUCGGUCUAACAAAAAAGACAAAUCUGCCACAAAGCUUGAGAGCAUCUUCGGAUGCAGAGGCGGCAGCCUUCGGUGGCGCGAUAGGGCCAACGUUCUCAACUAUGACACGCAAAACGCGUGCUCCGUUGAAUGGAGUUUAUCAUG,-2.99
18,GGAUCUUCUCGGUCUAACAAAAAAGACAAAUCUGCCACAACGCUUGAGAGCAUCUUCGGAUGCAGGGGCGGCAGCCUUUGGUGGCCCGAUAGCGCCAACGUUAUAAGCUAUGACACGCAAAACGCGUGCUCCGUUGAAUGGAGUUUAUCAUG,≤ -4.2
19,GGAUCUUCUCGGUCUAACAAAAAAGACAAAUCUGUCACAAAGCUUGAGAGCAUCUUCGGAUGCAGAGGCGGCAGCCUUCGGUAGCGCGAUAGCGCCAACGUUCUCAACUAUGACACGCAAAACGCGUGCUCCGUUGAAUGGAGUUUAUCAUG,-0.598

row,Variant,polymerase ribozyme fitness (log ratio)
1,GGAUCUUCUCGGUCUAACAAAAAAGACAAAUCUGCCCCAAAGCUUGAGAGCAUCUUCGGAUGCAGAGGCGGCAGCCUUCGGUGGCGUGAUAACGCCAACGUUCUCAACUAUGACACGCUAAACGCGUGCUCCGUUAAAUGGAGUUUAUCAUG,-0.359
2,GGAUCUUCUCGGUCUAACAAAAAAGACAAAUCUGCCACAGAGCAAGAGAGCAUCUUCGGAUGCAGAGGCGGCAGCCUUCGGUGGCGCGAUAGGGCCAACGUUCUCAACUAUGACACGCAUAACGCGUGCUCCGUUGAAUGUAGUUUAUCAUG,≤ -4.2
3,GGAUCUUCUCGGUCUAACAAAAAAGACAAAUCUGCAACAAAGCUUGAGAGCAUCUUCGGAUGCAGAGGUGGCAGCCUUCGGUGGGGCGCUAGCGCCAACGUUCUCAACUAUGUCACGCAAAACGCGUGCUCCGUUGAAUGGAGUUUAUCAUG,≤ -4.2
4,GGAUCUUCUCGGUCUAACAAAAAAGACAAAUCUGCCACAAAGCUUGAGAGCAUCUUCGGAUGCAGAGGCGGCAGCCUUCGGUGGUGCGAUAGCGCCAACGUUCUCAACUAUGACACGCAAAACGCGUGCUCCGUUGAAUGGAGUUUAUCAUG,0.000103
5,GGAUCUUCUCGGUCUAACAAAAAAGACAAAUCUGCCACAAAGCUUGAGAGCAUCUUCGGAUGCAGAGGCGGCAGCCUUCGGUGGGGCGAUAGCGCCAACGUUCUCAACUAUGACACGCAAAACGCGUGCUCCGUUGAAUGGAGUUUAUCAUG,-1.96
6,GGAUCUUCUCGGUCUAACAAAAAAGACAAAUCUGCCACAAAGCUUGAGAGCAUCUUCGGAUGCAGAGGCGGCUGCCUUCGGUGGCGCGAUAGCGCAAACGUUCUCAACAAUGACAUGCAAAACGCGUGCUCCGUUGAAUGGAGUUUAUCAUG,-2.66
7,GGAUCUUCUCGGUAUAACAAAAAAGACAAAUCUGCCACAAAGCUUGAGAGCAUCUUAGGAUGCAGAGGCGGCAGCCUUCGGUGGGGCGAUAGCGCCAACGUUCUCAACUAUGACACGCAAAACGCGUGCUCCGUUGAAUGGAGUUUAUCAUG,-3.75
8,GGAUCUUCUCGGUUUAACGAUAAAGACGAAUCUGCCACAAAGCUUGAGAGCAUCUUCGGAUGCACAGGCGGCAGCCUUCGGUGCCGCGAUAGCGCCAACGUUCUCAACUAUGACACGCAAAACUCGUGCUCCGUUGAAUGGACUCUAUCAUG,≤ -4.2
9,GGAUCUUCUCGGUAUAACAAAAAAGACAAAUCUGCCAUAAAGAUUGAGAGCAUCUACGGAUGCAGAGGCGGCAGCCUUCGGUGGUGCGAUAGCGCCAACGUUGUCAACUAUGACACGCAAAACGCGUGCUCCGUUGAAUGGAGUUUAUCAUG,≤ -4.2
10,GGAUCUUCUCGGUCUAACAAAAAAGAAAAAUCUGCCACAAAGCUUGAGAGCAUCUUCGGAUGCAGAGGCGGCAGCAUUCGGUGGCGCGAUAGCGCCAACGUUCUCAACUAUGACACGCAAAACGCGUGCUCCGUUGAAUGGAGUUUCACAUG,≤ -4.2
11,GGAUCUUCUCGGUCUAACAAAAAAGACAAAUCUGCCACCAAGCUUGAGAGCAUCUUCGGAUGCAGAGGCGGCAGCCUUCGGUGACGCGAUAGCGCCAACGUUCUCAACUAUGACACGCAAAACGCGUGCUCCGUUGACUGGAUUUUACCAUG,≤ -4.2
12,GGAUCUUCUCGGUCUAACAAAAAAGACCAAUCUGCCACAAAGCUUGAGAGCAUCUUCGGAUGCAGAGGCGGCAGCCUUUGGCGGCUCAAUAGCGCCAACGUUCUCUACUAUGACACGCAAAACGCGUGUUCCGUUGAAUGGAGUUUAGCAUU,≤ -4.2
13,GGAUCUUCUCGGUCUAACAAAAAAGACAAAUCUGCCACAAAGCUUGAGAGCAUCUUCGGAUGCAGAGGCGGCAGCCUUCGGUGGCGCGAUAGCGCUAACGUUCUCAACUAUGACACGCAAAACGCGUGCUCCGUUGAAUGGAGUUUAUCAUG,-0.793
14,GGAUCUUCUCGGUCUAAUAAAAAAGACAAAUCUGCCACAAAGCUUGAGAGCAUCUUCGGAUGCAGAGGCGGCAGCCUUCGGUUGCGCGGUAGCGCUAACGUUCUCAACUAUGACACGCAAAACGCGUGCUCCGUUGAAUGGAGUUUAUCAUG,-1.73
15,GGAUCUUCUCGGUCUAACAAAAAAGACAAAUCUGCCACAAAGCUUGAGAGCAUCUUCGGAUGCAGAGGCGGCAGCCUUCGGUGGCGCGCUAGCGCGAACGUUCUCAACUAUGACACGCAAAACGCGUGCUCCGUUGAAUGGAGUUUAUCAUG,-1.66
16,GGAUCUUCUCGGUCUAACAAAAAAGACACAUCUGGCACAAAGCUUGAGAGCAUCUUCGGAUGCAGAGGCGGCAGCCUUCGGUGGCGCGAUAGCGACAACGUUCUCAACUAUGACACGAAAAACGCGUGCUCCCUUGAAUGGAGUUUAUCAUG,≤ -4.2
17,GGAUCUUCUCGGUCUAACAAAAAAGACAAAUCUGCCGCAAAGCUUGAGAGCAUAUUUGGAUGCAGAGGCGACAGCCUUCGGUGGCGCGAUAGCGCCAACGUUCUCAACUAUGACGCGCAAAACGCGUGCUCCGUUGAAUGGAGUUUAUCAUG,≤ -4.2
18,GGAUCUUCUCGGUCUAACAAAAAAGACAAAUCUGCCACAAAGCUUGAGAGCAUCUUCGGAUGCAGAGGCGGCAGCCUUCGGUGGCGCGAUAGGGCCAGCGUUCUCAACUAUGACACGCAAAACGCGUGCUCCGUUGAAUGCAGUUUAUCAUG,-2.52
19,GGAUCUUCUCGGUCUAACAAAAAAGACAAAUCUGCCACAAAGCUUGAGAGCAUCUUCGGAUGCAGAGGCGGCAGCCUUCGGUGGCGCGGUAGCGCCAACGUUCUCAACUAUGACACGCAAAACGCGUGCUCCGUUGAAUGGAGUUUAUCAUG,-1.16
